Experiment [1] addresses tag-free LigB12 mutant D1066A (L. interrogans serovar Pomona). Kind of experiment: ELISA; tag-free LigB12 wild type or point mutants coated (1 μM/well); His tagged HTE20 or HTE20N titrated 0 to 10 μM; anti-His detection. (In general: ELISA stands for enzyme-linked immunosorbent assay.)
Experiment [2] has as its target tag-free LigB12 mutant E1088A (L. interrogans serovar Pomona). The experiment is described as above.
In experiment [3] the target is tag-free LigB12 mutant D1061N (L. interrogans serovar Pomona). The description is as above.
For experiment [4], the target named is tag-free LigB12 mutant F1054A (L. interrogans serovar Pomona). The description is as above.
Experiment [5] concerns the target LigB12-5-12 chimera (L. interrogans serovar Pomona). Kind of experiment: ELISA; tag-free LigB5/LigB12 and LigB7/LigB10 chimeras and wild-type domains coated (1 μM/well); 5 μM histidine tagged HTE17-20, HTE20 or HTE20N applied; anti-His detection.
In experiment [6] the target is LigB12-12-5 chimera (L. interrogans serovar Pomona). The description is as above.
The target of experiment [7] is GST tagged LigB12 (amino acids 1,047–1,119 in LigB) (L. interrogans serovar Pomona). Kind of experiment: ELISA; competitive; 5 μM GST-LigB4 or GST-LigB12 pre-incubated 1 h with HTE17-20, HTE20N or HTE20C (10 to 0.156 μM), then added to WI-38 cell monolayers at 37°C; HRP anti-GST.
In experiment [8] the target is GST tagged LigB4 (amino acids 307–403 in LigB) (L. interrogans serovar Pomona). The description is as above.
Experiment [9] has as its target tag free LigB12 (amino acids 1,047–1,119 in LigB) (L. interrogans serovar Pomona). Kind of experiment: other fluorescence titration; intrinsic tryptophan fluorescence of LigB12 (2 μM), excitation 295 nm, read at 315 nm, 25°C, PBS; HTE20 or HTE20N titrated 10 to 0.625 μM.
Experiment [10] addresses LigA on the surface of L. biflexa serovar Patoc ligA.
Experiment [11] deals with tag free LigB12 (amino acids 1,047–1,119 in LigB) (L. interrogans serovar Pomona). Kind of experiment: SPR; Biacore 3000; tag free LigB12 immobilised on CM5 (about 1,000 RU); HTE truncates 0 to 5 μM injected in PBS at 30 μL/min, 25°C; 1:1 Langmuir model. In general terms: SPR reads the build-up and loss of mass on a sensor chip optically.

The results in this text go back to article PMC5422739.

As a reminder, the Kd is the free concentration of one partner at which half of the binding sites on the other are occupied at equilibrium, for simple one-to-one binding. As a reminder, the koff is a measure of how fast the partners let go of each other. Read a high koff as fast dissociation. A word on the kon: it is the second-order rate constant of association. Read a high kon as faster complex formation.

B1: histidine tagged HTE20N (domain or fragment)
chain: GIPGAAVPGVVSPEAAAKAAAKAAKYG
As to B1, the percent of wild-type LigB12 binding in [1] turned out to be 26%; in experiment [3] it was 32%; in experiment [4], 15%; in experiment [5], 80%; in [6], 90%. This molecule also returned a Kd in experiment [2] of 870 nM.

B2: HTE20N (the first 27 residues of HTE20, amino acids 358–384 of HTE) (domain or fragment)
chain: GIPGAAVPGVVSPEAAAKAAAKAAKYG
Turning to B2, the percent decrease of LigB12 binding to WI-38 cells at the highest concentration in [7] was 51%. For the same molecule, in experiment [8], the percent decrease of LigB4 binding to WI-38 cells at the highest concentration is 54%. Moreover, the Kd in experiment [9] worked out at 820 nM. The molecule further came in with an inhibition of the adhesion of LigA-expressing L. biflexa (Patoc ligA) to WI-38 cells after pre-incubation with HTE20N, 10 to 0.156 μM; ELISA with hamster anti-L. biflexa sera in experiment [10] of 58%. In experiment [11], this molecule had a Kd of 780 nM, a koff of 0.0021 s⁻¹ and a kon of 2700 M⁻¹ s⁻¹.

B3: histidine tagged HTE20 (domain or fragment)
chain: GIPGAAVPGVVSPEAAAKAAAKAAKYGARPGVGVGGIPTYGVGAGGFPGFGVGVG
Turning to B3, the percent of wild-type LigB12 binding amounted to 26% in [1]; 32% in experiment [3]; 15% in experiment [4]; 80% in experiment [5]; 90% in experiment [6]. For the same molecule, the Kd in experiment [2] was found to be 870 nM.

B4: HTE20 (20th exon of human tropoelastin) (domain or fragment)
chain: GIPGAAVPGVVSPEAAAKAAAKAAKYGARPGVGVGGIPTYGVGAGGFPGFGVGVG
In turn, B4 had a Kd in [9] of 970 nM. In experiment [11], this molecule had a Kd of 940 nM, a koff of 0.0032 s⁻¹ and a kon of 3400 M⁻¹ s⁻¹.
